Assay results published in PMC7530888 (Nucleic Acids Research, 2020).
Values joined by “and” are separate entries in the source; they are usually repeats but may differ in a detail not shown here. Equal entries are not always repeated.

Experiment: Small angle X-ray scattering
Format: physicochemical, M. tuberculosis
Conditions: for Rg [from Guinier] / Rg [from P(r)]: BM29 ESRF, 10°C; for Rg [from Guinier]: 50 mM Tris pH 8.0, 200 mM NaCl, 2 mM βME; for Rg [from P(r)]: pH 8.0

Substance | Rg [from Guinier] [nm] | Rg [from P(r)] | Rg in presence of nicked DNA (presence of nicked DNA substrate (S1), from P(r)) [nm]
MtbLigA+Nicked DNA: MtbLigA in complex with 27-mer nicked DNA (S1) | 4.49±0.07 | 4.49±0.06 nm | 
MtbLigA: M. tuberculosis NAD^+-dependent DNA ligase A, full-length | 5.22±0.08 | 5.20 nm and 5.20±0.06 nm | 4.49
